Test [1] deals with T1, KDR-IgG (UniProt P35968 20-764).
T1 construct: Immobilised on CM5 chip by amine coupling; also called KDR-lgG; VEGF receptor 2; not shown: IgG part of the fusion
In words: SPR (BIAcore 3000), KDR-IgG immobilised on CM5 chip. (In general: In SPR one partner is held on a chip, and binding of the other changes the refractive index at the surface.)

In test [2] the target is T2, Flt-1-IgG (UniProt P17948 27-687).
T2 construct: Immobilised on CM5 chip by amine coupling; also called Flt-1-lgG; Flt-1-lg; not shown: IgG part of the fusion
T2 sequence (P17948 other isoform, or with tags, fused parts or gaps limits assumed): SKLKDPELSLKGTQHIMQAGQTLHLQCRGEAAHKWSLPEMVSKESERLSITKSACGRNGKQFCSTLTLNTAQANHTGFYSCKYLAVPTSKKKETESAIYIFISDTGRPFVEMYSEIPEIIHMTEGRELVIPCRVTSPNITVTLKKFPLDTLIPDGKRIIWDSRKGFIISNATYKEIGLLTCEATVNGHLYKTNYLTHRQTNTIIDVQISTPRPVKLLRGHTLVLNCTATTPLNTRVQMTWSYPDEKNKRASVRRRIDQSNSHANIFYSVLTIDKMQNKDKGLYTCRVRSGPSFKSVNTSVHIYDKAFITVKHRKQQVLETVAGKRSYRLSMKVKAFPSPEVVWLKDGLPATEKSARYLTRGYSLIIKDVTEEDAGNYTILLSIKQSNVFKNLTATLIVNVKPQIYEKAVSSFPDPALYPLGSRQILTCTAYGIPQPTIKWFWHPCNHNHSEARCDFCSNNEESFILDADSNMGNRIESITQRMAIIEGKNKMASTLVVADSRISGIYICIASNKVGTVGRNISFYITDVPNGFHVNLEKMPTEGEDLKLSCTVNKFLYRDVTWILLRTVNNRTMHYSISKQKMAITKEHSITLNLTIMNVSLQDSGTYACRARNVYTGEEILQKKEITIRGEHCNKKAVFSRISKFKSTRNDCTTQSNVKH
In words: SPR (BIAcore 3000), receptor-IgG immobilised on CM5 chip.

The target of test [3] is T1, KDR-IgG. Description: SPR (BIAcore 3000), KDR-IgG immobilised on CM5 chip; kdiss/kass.
Protocol: An apparatus for measurement based on surface plasmon resonance technique: BlAcore 3000 (Biosensor) was used to evaluate the properties of binding to and dissociation from a VEGF receptor as for a VEGF-like protein. Experiment for analysis of the receptor binding was conducted at 25° C. using an HBS buffer (10 mM HEPES, pH 7.4, 150 mM NaCl, 3 mM EDTA, 0.005% polysorbate 20). Flt-1-lgG and KDR-lgG were immobilized on a CM5 sensor chip using an amine coupling kit (Biosensor), respectively.
They were injected into a flow cell at a flow rate of 20 μL/min. A signal from a blank flow channel as a negative control was subtracted as a background signal from the signal from the sample flow channel, for background correction. In the association process, while injecting a solution with the above protein concentration on the sensor chip at the above flow rate, increase in the resonance signal was detected. In the dissociation process, while injecting the above buffer on the sensor chip at the above flow rate, decrease in the resonance signal was measured.
A rate constant for association (kₐₛₛ), a rate constant for dissociation (kdiss) and the maximum binding amount (Rₘₐₓ) for binding to a VEGF receptor in each VEGF-like protein were calculated using a BIA evaluation 3.1 curve fitting software (Biosensor). An apparent dissociation constant (Kd) was calculated as a ratio of the rate constants (kdiss/kₐₛₛ) from the calculated values.
Test [4] has as its target T3, Flt-4 (VEGF receptor type 3) (UniProt P35916 25-776).
T3 construct: Immobilised on CM5 chip; printed without an IgG suffix; also called VEGF receptor 3
T3 sequence: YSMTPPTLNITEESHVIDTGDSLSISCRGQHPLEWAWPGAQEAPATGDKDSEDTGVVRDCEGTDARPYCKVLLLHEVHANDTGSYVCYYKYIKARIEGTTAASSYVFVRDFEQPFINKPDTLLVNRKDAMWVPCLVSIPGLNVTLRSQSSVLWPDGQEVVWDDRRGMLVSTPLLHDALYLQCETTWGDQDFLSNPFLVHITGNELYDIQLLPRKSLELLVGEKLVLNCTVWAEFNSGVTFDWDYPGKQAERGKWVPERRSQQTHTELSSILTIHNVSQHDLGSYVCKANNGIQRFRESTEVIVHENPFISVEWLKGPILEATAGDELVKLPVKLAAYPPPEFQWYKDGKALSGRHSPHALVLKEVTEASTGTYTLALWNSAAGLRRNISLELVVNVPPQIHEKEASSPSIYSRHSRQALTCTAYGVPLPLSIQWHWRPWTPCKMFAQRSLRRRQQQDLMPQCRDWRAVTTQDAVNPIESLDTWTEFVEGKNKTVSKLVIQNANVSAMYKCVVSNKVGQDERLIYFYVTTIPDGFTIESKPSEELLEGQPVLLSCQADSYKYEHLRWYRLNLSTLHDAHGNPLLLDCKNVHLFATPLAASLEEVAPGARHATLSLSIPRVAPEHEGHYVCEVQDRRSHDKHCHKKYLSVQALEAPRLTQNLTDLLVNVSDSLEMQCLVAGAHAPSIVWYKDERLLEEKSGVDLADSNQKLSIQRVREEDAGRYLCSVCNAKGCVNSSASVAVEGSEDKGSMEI
In words: SPR (BIAcore 3000), receptor immobilised on CM5 chip.

T1 sequence (P35968 20-764 limits assumed): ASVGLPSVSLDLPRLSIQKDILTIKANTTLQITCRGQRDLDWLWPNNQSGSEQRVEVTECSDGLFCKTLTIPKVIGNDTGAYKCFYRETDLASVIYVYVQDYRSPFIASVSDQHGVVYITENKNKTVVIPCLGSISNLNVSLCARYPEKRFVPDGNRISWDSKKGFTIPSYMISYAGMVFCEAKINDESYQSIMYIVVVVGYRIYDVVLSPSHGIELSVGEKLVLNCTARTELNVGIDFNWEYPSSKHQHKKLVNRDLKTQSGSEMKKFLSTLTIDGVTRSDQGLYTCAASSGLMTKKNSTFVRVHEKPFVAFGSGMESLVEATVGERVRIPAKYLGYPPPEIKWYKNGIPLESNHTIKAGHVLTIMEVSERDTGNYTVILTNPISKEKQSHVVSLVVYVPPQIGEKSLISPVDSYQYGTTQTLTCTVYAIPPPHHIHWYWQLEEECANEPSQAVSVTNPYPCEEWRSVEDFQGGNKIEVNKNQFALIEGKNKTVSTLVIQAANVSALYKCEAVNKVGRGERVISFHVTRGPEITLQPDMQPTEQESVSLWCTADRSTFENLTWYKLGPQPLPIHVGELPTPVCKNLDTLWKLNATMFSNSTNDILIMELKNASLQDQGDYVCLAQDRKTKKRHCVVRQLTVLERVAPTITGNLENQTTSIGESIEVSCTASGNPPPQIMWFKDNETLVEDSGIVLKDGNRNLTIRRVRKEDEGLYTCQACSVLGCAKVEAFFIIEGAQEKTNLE

B1: VR-1 (VEGF-like protein purified from the venom of Daboia russelli russelli) (ligand)
chain: EVRPFLDVYQRSACQTRETLVSILQEHPDEISDIFRPSCVAVLRCSGCCTDESMKCTPVGKHTADIQIMRMNPRTHSSKMEVMKFMEHTACECRPRWKQGEPEGPKEPR
modifications: pyrrolidone ring at N-terminus (opened with methanol-hydrochloric acid for sequencing)
notes: also called VR-1 protein
In test [1], B1 registered a koff of 1.29e-05 s⁻¹ and a kon of 39000 M⁻¹ s⁻¹. Besides, the binding result in test [2] was “no binding (tested: 3, 10 and 30 nM)”. Also, the Kd in test [3] was found to be 0.332 nM.

B2: vammin (VEGF-like protein purified from the venom of Vipera ammodytes ammodytes) (ligand)
chain: EVRPFLEVHERSACQARETLVPILQEYPDEISDIFRPSCVAVLRCSGCCTDESLKCTPVGKHTVDLQIMRVNPRTQSSKMEVMKFTEHTACECRPRRKQGEPDGPKEKPR
modifications: pyrrolidone ring at N-terminus (opened with methanol-hydrochloric acid for sequencing)
notes: also called vammin protein
Regarding B2, in test [1], the koff is 4.6e-06 s⁻¹ and the kon worked out at 11200 M⁻¹ s⁻¹. Moreover, the binding result in test [2] is “no binding (tested: 3, 10 and 30 nM)”. Moreover, the binding result in test [4] is “no binding (tested: 500 nM)”. This molecule also showed a Kd in test [3] of 0.411 nM.

B3: HF (hypotensive factor from the venom of Vipera aspis aspis) (ligand)
chain: EVRPFLEVHERSACQARETLVSILQEYPDEISDIFRPSCVAVLRCSGCCTDESLKCTPVGKHTVDLQIMRVNPRTQSSKMEVMKFTEHTACECRPRRKQGEPDGPKEKPR
notes: also called HF protein
In the case of B3, in test [1], the koff is 9.6e-06 s⁻¹ and the kon worked out at 28800 M⁻¹ s⁻¹. For the same molecule, the binding result in test [2] was “no binding (tested: 3, 10 and 30 nM)”. In test [3], the Kd was determined as 0.334 nM.

As usually defined, the koff is the first-order rate constant of dissociation. The kon is the rate constant with which the complex forms. Read a high kon as faster complex formation. What is called Kd is the free concentration of one partner at which half of the binding sites on the other are occupied at equilibrium, for simple one-to-one binding.

Values taken from patent US20050181995A1 (NEC SOFT, published 2005).
